This is an account of results in patent US20150344540A1, “NOVEL GLP-1 RECEPTOR AGONISTS WITH CHOLESTEROL EFFLUX ACTIVITY” (NOVO NORDISK A/S, priority 2012, published 2015).

Where no end group is shown, it is not given here. [ ]: non-standard residue; d: D form. Aib = CC(C)(N)C(=O)O

First the molecules themselves.
B1: [Aib8,Glu23,Aib24,Val25,Aib30,Glu34,Lys35,Aib36,Lys37]-GLP-1-(7-37)-peptidyl-Glu-Phe-Leu amide (peptide)
peptide: H[Aib]EGTFTSDVSSYLEGE[Aib]VKEFI[Aib]WLVEK[Aib]KEFL-NH2
modifications: N-terminus assumed
SMILES: CC[C@H](C)[C@H](NC(=O)[C@H](Cc1ccccc1)NC(=O)[C@H](CCC(=O)O)NC(=O)[C@H](CCCCN)NC(=O)[C@@H](NC(=O)C(C)(C)NC(=O)[C@H](CCC(=O)O)NC(=O)CNC(=O)[C@H](CCC(=O)O)NC(=O)[C@H](CC(C)C)NC(=O)[C@H](Cc1ccc(O)cc1)NC(=O)[C@H](CO)NC(=O)[C@H](CO)NC(=O)[C@@H](NC(=O)[C@H](CC(=O)O)NC(=O)[C@H](CO)NC(=O)[C@@H](NC(=O)[C@H](Cc1ccccc1)NC(=O)[C@@H](NC(=O)CNC(=O)[C@H](CCC(=O)O)NC(=O)C(C)(C)NC(=O)[C@@H](N)Cc1c[nH]cn1)[C@@H](C)O)[C@@H](C)O)C(C)C)C(C)C)C(=O)NC(C)(C)C(=O)N[C@@H](Cc1c[nH]c2ccccc12)C(=O)N[C@@H](CC(C)C)C(=O)N[C@H](C(=O)N[C@@H](CCC(=O)O)C(=O)N[C@@H](CCCCN)C(=O)NC(C)(C)C(=O)N[C@@H](CCCCN)C(=O)N[C@@H](CCC(=O)O)C(=O)N[C@@H](Cc1ccccc1)C(=O)N[C@@H](CC(C)C)C(N)=O)C(C)C
B2: [Aib8,Glu23,Arg24,Val25,Glu34,Lys35,Aib36,Lys37]-GLP-1-(7-37)-peptidyl-Glu-Phe-Leu amide (peptide)
peptide: H[Aib]EGTFTSDVSSYLEGERVKEFIAWLVEK[Aib]KEFL-NH2
modifications: N-terminus assumed
SMILES: CC[C@H](C)[C@H](NC(=O)[C@H](Cc1ccccc1)NC(=O)[C@H](CCC(=O)O)NC(=O)[C@H](CCCCN)NC(=O)[C@@H](NC(=O)[C@H](CCCNC(=N)N)NC(=O)[C@H](CCC(=O)O)NC(=O)CNC(=O)[C@H](CCC(=O)O)NC(=O)[C@H](CC(C)C)NC(=O)[C@H](Cc1ccc(O)cc1)NC(=O)[C@H](CO)NC(=O)[C@H](CO)NC(=O)[C@@H](NC(=O)[C@H](CC(=O)O)NC(=O)[C@H](CO)NC(=O)[C@@H](NC(=O)[C@H](Cc1ccccc1)NC(=O)[C@@H](NC(=O)CNC(=O)[C@H](CCC(=O)O)NC(=O)C(C)(C)NC(=O)[C@@H](N)Cc1c[nH]cn1)[C@@H](C)O)[C@@H](C)O)C(C)C)C(C)C)C(=O)N[C@@H](C)C(=O)N[C@@H](Cc1c[nH]c2ccccc12)C(=O)N[C@@H](CC(C)C)C(=O)N[C@H](C(=O)N[C@@H](CCC(=O)O)C(=O)N[C@@H](CCCCN)C(=O)NC(C)(C)C(=O)N[C@@H](CCCCN)C(=O)N[C@@H](CCC(=O)O)C(=O)N[C@@H](Cc1ccccc1)C(=O)N[C@@H](CC(C)C)C(N)=O)C(C)C
B3: [Aib8,Glu23,Val25,Lys27,Glu34,Lys35,Aib36,Lys37]-GLP-1-(7-37)-peptidyl-Glu-Phe-Leu amide (peptide)
peptide: H[Aib]EGTFTSDVSSYLEGEAVKKFIAWLVEK[Aib]KEFL-NH2
modifications: N-terminus assumed
SMILES: CC[C@H](C)[C@H](NC(=O)[C@H](Cc1ccccc1)NC(=O)[C@H](CCCCN)NC(=O)[C@H](CCCCN)NC(=O)[C@@H](NC(=O)[C@H](C)NC(=O)[C@H](CCC(=O)O)NC(=O)CNC(=O)[C@H](CCC(=O)O)NC(=O)[C@H](CC(C)C)NC(=O)[C@H](Cc1ccc(O)cc1)NC(=O)[C@H](CO)NC(=O)[C@H](CO)NC(=O)[C@@H](NC(=O)[C@H](CC(=O)O)NC(=O)[C@H](CO)NC(=O)[C@@H](NC(=O)[C@H](Cc1ccccc1)NC(=O)[C@@H](NC(=O)CNC(=O)[C@H](CCC(=O)O)NC(=O)C(C)(C)NC(=O)[C@@H](N)Cc1c[nH]cn1)[C@@H](C)O)[C@@H](C)O)C(C)C)C(C)C)C(=O)N[C@@H](C)C(=O)N[C@@H](Cc1c[nH]c2ccccc12)C(=O)N[C@@H](CC(C)C)C(=O)N[C@H](C(=O)N[C@@H](CCC(=O)O)C(=O)N[C@@H](CCCCN)C(=O)NC(C)(C)C(=O)N[C@@H](CCCCN)C(=O)N[C@@H](CCC(=O)O)C(=O)N[C@@H](Cc1ccccc1)C(=O)N[C@@H](CC(C)C)C(N)=O)C(C)C
B4: [Aib8,Glu23,Val25,Trp30,Glu34,Lys35,Aib36,Lys37]-GLP-1-(7-37)-peptidyl-Glu-Phe-Leu amide (peptide)
peptide: H[Aib]EGTFTSDVSSYLEGEAVKEFIWWLVEK[Aib]KEFL-NH2
modifications: N-terminus assumed
SMILES: CC[C@H](C)[C@H](NC(=O)[C@H](Cc1ccccc1)NC(=O)[C@H](CCC(=O)O)NC(=O)[C@H](CCCCN)NC(=O)[C@@H](NC(=O)[C@H](C)NC(=O)[C@H](CCC(=O)O)NC(=O)CNC(=O)[C@H](CCC(=O)O)NC(=O)[C@H](CC(C)C)NC(=O)[C@H](Cc1ccc(O)cc1)NC(=O)[C@H](CO)NC(=O)[C@H](CO)NC(=O)[C@@H](NC(=O)[C@H](CC(=O)O)NC(=O)[C@H](CO)NC(=O)[C@@H](NC(=O)[C@H](Cc1ccccc1)NC(=O)[C@@H](NC(=O)CNC(=O)[C@H](CCC(=O)O)NC(=O)C(C)(C)NC(=O)[C@@H](N)Cc1c[nH]cn1)[C@@H](C)O)[C@@H](C)O)C(C)C)C(C)C)C(=O)N[C@@H](Cc1c[nH]c2ccccc12)C(=O)N[C@@H](Cc1c[nH]c2ccccc12)C(=O)N[C@@H](CC(C)C)C(=O)N[C@H](C(=O)N[C@@H](CCC(=O)O)C(=O)N[C@@H](CCCCN)C(=O)NC(C)(C)C(=O)N[C@@H](CCCCN)C(=O)N[C@@H](CCC(=O)O)C(=O)N[C@@H](Cc1ccccc1)C(=O)N[C@@H](CC(C)C)C(N)=O)C(C)C
B5: [Aib8,Lys23,Arg24,Arg26,Glu34,Lys35,Aib36,Lys37]-GLP-1-(7-37)-peptidyl-Glu-Phe-Leu amide (peptide)
peptide: H[Aib]EGTFTSDVSSYLEGKRAREFIAWLVEK[Aib]KEFL-NH2
modifications: N-terminus assumed
SMILES: CC[C@H](C)[C@H](NC(=O)[C@H](Cc1ccccc1)NC(=O)[C@H](CCC(=O)O)NC(=O)[C@H](CCCNC(=N)N)NC(=O)[C@H](C)NC(=O)[C@H](CCCNC(=N)N)NC(=O)[C@H](CCCCN)NC(=O)CNC(=O)[C@H](CCC(=O)O)NC(=O)[C@H](CC(C)C)NC(=O)[C@H](Cc1ccc(O)cc1)NC(=O)[C@H](CO)NC(=O)[C@H](CO)NC(=O)[C@@H](NC(=O)[C@H](CC(=O)O)NC(=O)[C@H](CO)NC(=O)[C@@H](NC(=O)[C@H](Cc1ccccc1)NC(=O)[C@@H](NC(=O)CNC(=O)[C@H](CCC(=O)O)NC(=O)C(C)(C)NC(=O)[C@@H](N)Cc1c[nH]cn1)[C@@H](C)O)[C@@H](C)O)C(C)C)C(=O)N[C@@H](C)C(=O)N[C@@H](Cc1c[nH]c2ccccc12)C(=O)N[C@@H](CC(C)C)C(=O)N[C@H](C(=O)N[C@@H](CCC(=O)O)C(=O)N[C@@H](CCCCN)C(=O)NC(C)(C)C(=O)N[C@@H](CCCCN)C(=O)N[C@@H](CCC(=O)O)C(=O)N[C@@H](Cc1ccccc1)C(=O)N[C@@H](CC(C)C)C(N)=O)C(C)C
B6: [Aib8,Glu23,Lys24,Val25,Glu30,Glu34,Lys35,Aib36,Lys37]-GLP-1-(7-37)-peptidyl-Glu-Phe-Leu amide (peptide)
peptide: H[Aib]EGTFTSDVSSYLEGEKVKEFIEWLVEK[Aib]KEFL-NH2
modifications: N-terminus assumed
SMILES: CC[C@H](C)[C@H](NC(=O)[C@H](Cc1ccccc1)NC(=O)[C@H](CCC(=O)O)NC(=O)[C@H](CCCCN)NC(=O)[C@@H](NC(=O)[C@H](CCCCN)NC(=O)[C@H](CCC(=O)O)NC(=O)CNC(=O)[C@H](CCC(=O)O)NC(=O)[C@H](CC(C)C)NC(=O)[C@H](Cc1ccc(O)cc1)NC(=O)[C@H](CO)NC(=O)[C@H](CO)NC(=O)[C@@H](NC(=O)[C@H](CC(=O)O)NC(=O)[C@H](CO)NC(=O)[C@@H](NC(=O)[C@H](Cc1ccccc1)NC(=O)[C@@H](NC(=O)CNC(=O)[C@H](CCC(=O)O)NC(=O)C(C)(C)NC(=O)[C@@H](N)Cc1c[nH]cn1)[C@@H](C)O)[C@@H](C)O)C(C)C)C(C)C)C(=O)N[C@@H](CCC(=O)O)C(=O)N[C@@H](Cc1c[nH]c2ccccc12)C(=O)N[C@@H](CC(C)C)C(=O)N[C@H](C(=O)N[C@@H](CCC(=O)O)C(=O)N[C@@H](CCCCN)C(=O)NC(C)(C)C(=O)N[C@@H](CCCCN)C(=O)N[C@@H](CCC(=O)O)C(=O)N[C@@H](Cc1ccccc1)C(=O)N[C@@H](CC(C)C)C(N)=O)C(C)C
B7: [Aib2,Gly16,Glu21,Lys29,Aib30,Leu31,Glu32,Phe33,Leu34,Glu35,Leu36,Leu37]-Exendin-4-(1-37)-peptide amide (peptide)
peptide: H[Aib]EGTFTSDLSKQMEGEAVREFIEWLKNK[Aib]LEFLELL-NH2
modifications: N-terminus assumed
SMILES: CC[C@H](C)[C@H](NC(=O)[C@H](Cc1ccccc1)NC(=O)[C@H](CCC(=O)O)NC(=O)[C@H](CCCNC(=N)N)NC(=O)[C@@H](NC(=O)[C@H](C)NC(=O)[C@H](CCC(=O)O)NC(=O)CNC(=O)[C@H](CCC(=O)O)NC(=O)[C@H](CCSC)NC(=O)[C@H](CCC(N)=O)NC(=O)[C@H](CCCCN)NC(=O)[C@H](CO)NC(=O)[C@H](CC(C)C)NC(=O)[C@H](CC(=O)O)NC(=O)[C@H](CO)NC(=O)[C@@H](NC(=O)[C@H](Cc1ccccc1)NC(=O)[C@@H](NC(=O)CNC(=O)[C@H](CCC(=O)O)NC(=O)C(C)(C)NC(=O)[C@@H](N)Cc1c[nH]cn1)[C@@H](C)O)[C@@H](C)O)C(C)C)C(=O)N[C@@H](CCC(=O)O)C(=O)N[C@@H](Cc1c[nH]c2ccccc12)C(=O)N[C@@H](CC(C)C)C(=O)N[C@@H](CCCCN)C(=O)N[C@@H](CC(N)=O)C(=O)N[C@@H](CCCCN)C(=O)NC(C)(C)C(=O)N[C@@H](CC(C)C)C(=O)N[C@@H](CCC(=O)O)C(=O)N[C@@H](Cc1ccccc1)C(=O)N[C@@H](CC(C)C)C(=O)N[C@@H](CCC(=O)O)C(=O)N[C@@H](CC(C)C)C(=O)N[C@@H](CC(C)C)C(N)=O

For this experiment, the target named is human GLP-1 receptor (human, UniProt P43220). In words: cell-based or functional assay.
Consider B1, for which the “CRE luciferase EC50, 0% HSA” value was 0.396 nM and the “CRE luciferase EC50, 1% HSA” value was 0.193 nM.
The corresponding values for HXEGTFTSDVSSYLEGQAAKEFIAWLVKKXKEFL (Aib at 8, 36; C-terminal amide) [[Aib8,Lys35,Aib36,Lys37]-GLP-1-(7-37)-peptidyl-Glu-Phe-Leu amide] are 0.256 nM and 0.084 nM.
On to HXEGTFTSDVSSYLEGQAAKEFIAWLVKKXGEFL (Aib at 8, 36; C-terminal amide) [[Aib8,Lys35,Aib36]-GLP-1-(7-37)-peptidyl-Glu-Phe-Leu amide], for which the “CRE luciferase EC50, 0% HSA” value is 0.045 nM and the “CRE luciferase EC50, 1% HSA” value was determined as 0.015 nM.
In the same order, the values of B2 are 1.08 nM and 0.273 nM.
The corresponding values for B3 are 0.325 nM and 0.097 nM.
In the case of B4, the “CRE luciferase EC50, 0% HSA” value was 0.157 nM and the “CRE luciferase EC50, 1% HSA” value worked out at 0.054 nM.
In the same order, the values of B5 are 0.383 nM and 0.138 nM.
As to B6, the “CRE luciferase EC50, 0% HSA” value stood at 0.716 nM and the “CRE luciferase EC50, 1% HSA” value turned out to be 0.164 nM.
The corresponding values for B7 are 0.506 nM and 0.26 nM.
